Common to all, as to assay type: in vivo
In experiment [1] the test system is winter wheat. Description: Field trial: esterase on urea fertilizer, winter wheat yield. The settings on record: 1 fl oz or 2 fl oz fermentation product on 15 lb N/A urea. The protocol:
Esterase A (EstA) from Bacillus subtilis (SEQ ID NO:254) was produced via fermentation of a recombinantly produced enzyme in Bacillus subtilis. 1 fl oz or 2 fl oz of fermentation product was applied onto 15 lb N/A (nitrogen equivalent per acre) urea fertilizer in a concrete mixer and allowed to mix for 1 minute. A urea control treatment without fermentation media was also created. urea, alone or with fermentation media was distributed across 4 small replicated plots prior to planting of winter wheat with 5 replicates of 300 ft^2 each at each site.

Experiment [2] relates to corn. Description: Field trial: esterase on DAP fertilizer, corn yield. The settings on record: 1, 2, or 3 fl oz fermentation product on 67.5 lb P/A DAP. The method, then:
(§1) Esterase A (EstA) from Bacillus subtilis (SEQ ID NO:254) was produced via fermentation of a recombinantly produced enzyme in Bacillus subtilis. 1, 2, or 3 fl oz of fermentation product was applied onto 67.5 lb P/A (phosphate equivalent per acre) diammonium phosphate (DAP) fertilizer in a concrete mixer, and allowed to mix for 1 minute. A DAP control treatment without fermentation media was also created. DAP, alone or with fermentation media was distributed across 4 small replicated plots each prior to planting of corn with 4 replicates of 400 ft^2 each at each site.

Experiment [3] deals with corn. Kind of experiment: Field trial: esterase on MAP/DAP fertilizer, corn yield. The settings on record: 2 fl oz/A EstA fermentation on MAP/DAP (72 lb/A Phosphate); base control 12798. The method, then: Esterase A (EstA) from Bacillus subtilis (SEQ ID NO:254) was produced via fermentation of a recombinantly produced enzyme in Bacillus subtilis. 2 fl oz of fermentation product was applied onto either 72 lb P/A (phosphate equivalent per acre) monoammonium phosphate (MAP) fertilizer or diammonium phosphate (DAP) fertilizer in a concrete mixer, and allowed to mix for 1 minute. A MAP/DAP control treatment without fermentation media was also created. MAP or DAP, alone or with fermentation media was distributed across 4 small replicated plots each prior to planting of corn with 5 replicates of 400 ft2 each at each site (4 site with MAP, 4 sites with DAP, combined in data in Table 52 below).

Experiment [4] deals with corn. Kind of experiment: Field trial: esterase on urea with or without NBPT nitrogen stabilizer, corn yield. The settings on record: 1, 2, or 3 fl oz fermentation product on 135 lb N/A urea, with or without 64 fl oz/ton NBPT. The method, then:
as §1, with “135” for “67.5”, “N/A (nitrogen” for “P/A (phosphate”, “urea” for “diammonium phosphate (DAP)”, “urea” for “DAP”, “An addition treatment that contained 64 fl oz/ton N-Butyl-thiophosphoric triamide (NBPT) nitrogen stabilizer or 64 fl oz/ton NBPT nitrogen stabilizer with 3 fl oz/A EstA fermentation product was also included in the trial. Urea,” for “DAP,”, “ft2” for “ft^2”

Experiment [5] relates to winter wheat. Kind of experiment: Field trial: esterase on MAP fertilizer, winter wheat yield and vigor. The settings on record: 1 fl oz/A EstA fermentation on MAP (15 lb/A Phosphate); MAP base control 4124.5. The protocol: Esterase A (EstA) from Bacillus subtilis (SEQ ID NO:254) was produced via fermentation of a recombinantly produced enzyme in Bacillus subtilis. 1 fl oz of fermentation product was applied onto 15 lb P/A (phosphate equivalent per acre) monoammonium phosphate (MAP) fertilizer in a concrete mixer and allowed to mix for 1 minute. A MAP control treatment without fermentation media was also created. MAP, alone or with fermentation media was distributed across 4 small replicated plots prior to planting of winter wheat with 5 replicates of 300 ft^2 each at each site.

Experiment [6] deals with corn. Description: Field trial: EstA Esterase corn seed treatment, yield. The settings on record: 2.5 fl oz/unit on hybrid corn seed; 16 sites. The source says: 2.5 fl oz/unit of EstA Esterase from recombinant Bacillus subtilis fermentation (SEQ ID NO: 254) was coated onto hybrid corn seeds treated with Fludioxinil, Azoxystrobin, mefonoxam, and thiabendaz fungicides, cyantraniliproleinsecticide, peridium 1006 polymer, and (colorant). A control treatment without esterase enzyme was also created. The seed treated with esterase and control seed was planted in replicated trials distributed across 16 replicated plots with 4 replicates of 80 ft2 each at each site.

Experiment [7] has as its system corn. Description: Field trial: PytH Esterase corn seed treatment, yield. The settings on record: 0.5 fl oz/unit on hybrid corn seed; 10 sites. The source says: 0.5 fl oz/unit of PythH Esterase from recombinant Bacillus subtilis fermentation (SEQ ID NO:255) was coated onto Hybrid corn seeds treated with Fludioxinil fungicide, ipconazole fungicide, peridium 1006 polymer, and Sensient Red (colorant). A control treatment without esterase enzyme was also created. The seed treated with esterase and control seed was planted in replicated trials distributed across 10 replicated plots with 4 replicates of 100 ft2 each at each site.

The subject of another experiment is soybean. Description: Field trial: Geobacillus stearothermophilus esterase soybean seed treatment, yield. The settings on record: 0.5 fl oz/unit on soybean seed; 6 sites. An excerpt: 0.5 fl oz/unit of Esterase (carboxylesterase) from Geobacillus/Bacillus stearothermophilus (SEQ ID NO:252) was coated onto soybean seeds treated with Evergol Energy (prothioconazole, metalaxyl, and penflufen fungicides) at 1 fl oz/cwt, Alias 4F (imidacloprid, insecticide) at 1.25 fl oz/unit, Sensient Red (colorant) at 0.5 fl oz/cwt, and Seedwork 4037L polymer at 1.5 fl oz/cwt. A control treatment without esterase enzyme was also created. The seed treated with esterase and control seed was planted in replicated trials distributed across 6 replicated plots with 4 replicates of 60 ft2 each at each site.

B1: EstA fermentation: Esterase A (EstA) from Bacillus subtilis (SEQ ID NO:254), fermentation product of recombinant Bacillus subtilis (protein, listed as Bacillus subtilis)
chain: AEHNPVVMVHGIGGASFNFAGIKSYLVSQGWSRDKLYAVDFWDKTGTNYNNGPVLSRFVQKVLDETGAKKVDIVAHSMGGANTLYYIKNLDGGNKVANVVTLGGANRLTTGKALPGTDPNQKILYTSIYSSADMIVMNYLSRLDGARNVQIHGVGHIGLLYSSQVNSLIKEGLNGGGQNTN
Consider B1, for which, in the experiment on winter wheat [1], the “yield vs urea control (in words)” value is on record as “increased the yield”. Moreover, the “yield vs DAP control (in words)” value in the experiment on corn [2] was “increased the yield”. The “Yield (Kg/ha)” value with corn [3] is reported as 13077 Kg/ha; with winter wheat [5], 4224.7 Kg/ha. Besides, the “yield vs urea control and NBPT containing treatments (in words)” value in the experiment on corn [4] is reported as “increased the yield”. In addition, in the experiment with corn [6], the “yield vs base seed treatment package (in words)” value was “increased the yield”.

B2: PytH esterase (SEQ ID NO:255): Sphingobium wenxiniae (PytH) Esterase from recombinant Bacillus subtilis fermentation (protein, listed as Sphingobium wenxiniae)
chain: MTVTDIILIHGALNRGACYDAVVPLLEARGYRVHAPDLTGHTPGDGGHLSVVDMEHYTRPVADILARAEGQSILLGHSLGGASISWLAQHHPDKVAGLIYLTAVLTAPGITPETFVLPGEPNRGTPHALDLIQPVDEGRGLQADFSRLERLREVFMGDYPGEGMPPAEQFIQTQSTVPFGTPNPMEGRALEIPRLYIEALDDVVIPIAVQRQMQKEFPGPVAVVSLPASHAPYYSMPERLAEAIADFADAPAEYRQTATKAGPDRPAGADGGRADRADLP
B2: the “yield vs base seed treatment package (in words)” value with corn [7] is “increased the yield”.

B3: Geobacillus stearothermophilus esterase (SEQ ID NO:252): Esterase (carboxylesterase) from Geobacillus/Bacillus stearothermophilus (protein, listed as Bacillus stearothermophilus, listed as Geobacillus stearothermophilus)
chain: MKIVPPKPFFFEAGERAVLLLHGFTGNSADVRMLGRFLESKGYTCHAPIYKGHGVPPEELVHTGPDDWWQDVMNGYEFLKNKGYEKIAVAGLSLGGVFSLKLGYTVPIEGIVTMCAPMYIKSEETMYEGVLEYAREYKKREGKSEEQIEQEMEKFKQTPMKTLKALQELIADVRDHLDLIYAPTFVVQARHDEMINPDSANIIYNEIESPVKQIKWYEQSGHVITLDQEKDQLHEDIYAFLESLDW
In the case of B3, the “yield vs base seed treatment package (in words)” value in the experiment with soybean was “increased the yield”.

These data come from patent US20260231954A1, “PESTICIDAL ENZYMES FOR USE ON NEMATODES, INSECTS, AND MOLLUSKS” (priority 2023, published 2026).
